Numbering of substitutions follows the chain as printed.
Key:
[1] = target: T1, GPBP (FLAG-GPBP) (Homo sapiens, UniProt Q9Y5P4); assay: […] in vitro autophosphorylation of FLAG-GPBP (Figure 9G); type: biochemical
T1 construct: gene CERT1; FLAG-GPBP
T1 sequence (Q9Y5P4 1-624): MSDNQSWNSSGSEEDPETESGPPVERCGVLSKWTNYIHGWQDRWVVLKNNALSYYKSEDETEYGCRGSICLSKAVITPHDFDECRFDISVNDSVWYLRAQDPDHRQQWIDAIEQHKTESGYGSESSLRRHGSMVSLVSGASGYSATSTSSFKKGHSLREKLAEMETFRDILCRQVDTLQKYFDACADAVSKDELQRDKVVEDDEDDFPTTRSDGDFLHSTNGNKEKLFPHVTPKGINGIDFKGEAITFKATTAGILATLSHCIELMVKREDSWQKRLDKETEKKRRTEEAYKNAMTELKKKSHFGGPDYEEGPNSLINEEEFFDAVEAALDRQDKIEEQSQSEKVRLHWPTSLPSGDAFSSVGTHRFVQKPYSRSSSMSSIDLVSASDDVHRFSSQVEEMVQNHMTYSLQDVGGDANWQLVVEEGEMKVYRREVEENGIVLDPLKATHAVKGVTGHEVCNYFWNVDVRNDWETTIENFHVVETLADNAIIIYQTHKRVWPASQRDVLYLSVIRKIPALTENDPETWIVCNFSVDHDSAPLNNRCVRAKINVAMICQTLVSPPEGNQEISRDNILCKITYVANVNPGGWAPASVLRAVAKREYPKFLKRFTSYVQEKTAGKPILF

[2] = target: T2, Goodpasture antigen-binding protein (GPBP) (Homo sapiens, UniProt Q9Y5P4); assay: […] in vitro autophosphorylation of purified multimeric GPBP at […] T12; FPLC-SEC shift of GPBP oligomers (BSA control unaffected); type: biochemical
T2 construct: gene CERT1; FLAG-tagged recombinant GPBP multimer (77-kDa GPBP isoform); also native extracellular A427 GPBP
T2 sequence (Q9Y5P4 1-624): T1 sequence (Q9Y5P4 1-624)

[3] = target: the molecule itself; assay: SEC; FPLC-SEC on Superdex 200 of FLAG-GPBP purified from Sf9 culture media; calibrators thyroglobulin, aldolase, human serum albumin
[4] = target: the molecule itself; assay: SEC; HPLC-SEC on TSKgel G4000SW of purified yeast recombinant FLAG-tagged polypeptides
[5] = target: the molecule itself; assay: SEC; GPBP affinity-purified from culture media of A427 and A549 cells (scFvN26 column, native elution with peptide PS132), FPLC-SEC on Superdex 200, fractions read by indirect ELISA with anti-GPBP mAb

Molecule: COc1cccc2c1C(=O)c1c(O)c3c(c(O)c1C2=O)C[C@@](O)(C(=O)CO)C[C@@H]3O[C@H]1C[C@H](N)[C@H](O)[C@H](C)O1 [doxorubicin]
- 32P in vitro autophosphorylation of FLAG-GPBP (Figure 9G) [1]: it was shown the existence of GPBP species sensitive to doxorubicin (Figure 9G)

Molecule: COc1ccc(-c2ccc(-c3cccc(C)c3)c(C)c2)c(CCC(=O)O)c1 [T12, 3-[4″-methoxy-3,2′-dimethyl-(1,1′;4′,1″)terphenyl-2″-yl]propionic acid]
- 32P in vitro autophosphorylation of purified multimeric GPBP at 50 μM T12; FPLC- [2]: T12 reduced autophosphorylation of recombinant multimer but did not affect the recombinant GPBP trimer autophosphorylation activity

B1: FLAG-tagged GPBP (Goodpasture antigen-binding protein), extracellular pool from Sf9 cells (natural protein, human, UniProt Q9Y5P4 1-624, looked up)
chain: T1 sequence (Q9Y5P4 1-624)
notes: Constructs may be described in the extended methods (Supplementary Materials); also called FLAG-GPBP; extracellular GPBP
- binding result [3]: binds

B2: yeast recombinant FLAG-tagged GPBP (natural protein, human, UniProt Q9Y5P4 1-624, looked up)
chain: T1 sequence (Q9Y5P4 1-624)
notes: also called FLAG-GPBP
- binding result [4]: binds

B3: native extracellular GPBP isolated from the culture media of human NSCLC cells (A427, A549) (natural protein, human (endogenous in A427 and A549), UniProt Q9Y5P4 1-624, looked up)
chain: T1 sequence (Q9Y5P4 1-624)
notes: also called native extracellular A427 GPBP; mesenchymal GPBP
- binding result [5]: binds

B4: yeast recombinant FLAG-tagged GPBP-Ala264 (natural protein, human, UniProt Q9Y5P4 1-624, looked up)
chain: T1 sequence (Q9Y5P4 1-624) with E264A
notes: Mainly trimeric by SEC, with traces of higher and lower MW materials; source: yeast, purified
- stoichiometry N [4]: 3
